assay: yeast display, Sf9 membrane polyspecificity reagent, FACS + sequencing; frameworks hold sequencing errors
How it was run: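 Polyreactivity labels are assigned by the sorting gate from which each nanobody was recovered. The gates were low and high (top ~1%), set on anti-HA fluorescence for expression and streptavidin fluorescence for reagent binding. Before sorting, galactose-induced (36–48 hours) yeast display cells were stained for 1 hour at 4 °C with 10% biotinylated, detergent-solubilized Sf9 membrane reagent.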

Sequence	polyreactivity (PSR sort gate)
QVQLVESGGGLVQAGGSLRLSCAASGSIFVDNAMGWYRQAPGKETQLVAAIRSRDTSTYYADSVKGRFSISLDNAKNTVYLQMNSLKPEDTAVYYCAARTSKRVSQYNYWGQGTQVTVSS	high polyreactivity
QVQLVESGGRLVQAGGSLRLSCAASGSIFYYNVMGWYRQAPGKERELVAAIDIDGSTYYADSVKGRFTISRDNAKNTVYLQMNSLKPEDTAVYYCAADVHTPALYTYAAGDYWGQGTQVTVSS	low polyreactivity
QVQLVESGGGLVQAGGSLRLSCAASGLTFPSYAMGWYRQAPGKERELVAAISSGDSTNYADSVKGRFTISRDNAKNTVYLQMNSLKPEDTAVYYCAVGLPHGGRRLYGSWYRFDYWGQGTQVTVSS	low polyreactivity
QVQLVESGGGLVQAGGSLRLSCAASGRIFDYNAMGWYRQAPGKERELVAAISSRGGRTYYADSVKGRFTISRDNAKNTVYLQMNSLKPEDTAVYYCNTGWATDADDYWGQGTQVTVSS	high polyreactivity
QVQLVESGGGLVQAGGSLRLSCAASGSIFPYYAMGGYRQAAGKERELVATITSRGGSTDYADYVKGRFTISRDNAKNTVYLQMNSLKREDTAVYYCAKEYRYYRRRYDYWGQGTQVTVSS	high polyreactivity
QVQLVESGGGLVQAGGSLRLSCAASGSIFESNAMGWYRQAPGKEREFVAAIDQNDGSTNYADSVKGRFTISRDNAKNTVYLQMNSLKPEDTAVYYCAKYWGYLGYYEFDYWGQGTQVTVSS	low polyreactivity
QDQLVESGGGLVQAGGSLRISCAASGSTFFGYAMGWYRQAPGKERELVATISSGDSTNYADSVKGRFTFSRDNAKNTVYLQMNSLKPEDTAVFYCAAQGGDGVLALYYYWGQGTQVTVSS	low polyreactivity
QVQLVESGGGLVQAGGSLRLSCAASGRTSLYYAMGWYRQAPGKEREFVATITSGGSTNYADSVKGRFTISRDNAKNTVYLQMNSLKPEDTALYYCNARWRRGKTRYGYWGQGTQVNVSS	high polyreactivity
QVQLVESGGGLVQAGGSLRLSCAASGSIFKVYAMGWYRQAPGKERELVASITSGGRTYADSVKGRFTISRDNAKNTVYLQMNSLKPEDTAVYYCSARSRSKFYYWGQGTQLTVSS	high polyreactivity
QLQLVESGGGLVQAGGSLRLSCAASGLTIWRYAKGCYRQAPGKEREFVATISQNGGRTYYADSVKGRFTISRDNAKNSVYLQMNSLKPEDTAVYYCAADDWRWGYDYWVQGTQVTVSS	high polyreactivity
QVQLVESGGGLVQAGGSLRLSCAACGRIFTPNAMGWYRPAPGKERELVAAITWSGDNTYADSVKGRFTISRDNAKNTVYLQMNSLKPEDTAVYYCAAAYGYGHKNYGYWRQGTQVTVSS	low polyreactivity
QVQLVESGGGLVQAGGSLRLSCAASGSIFGRNAMGWYRQAPGKERELVAVISKRSGNTYYADSVKGRFTISRDNAKNTVYLQLNSLKPEDTAVYYCNAVDQKLLRYDYWGQGTQVTVSS	high polyreactivity
QVQLVESGGGLVQAGGSLPLSCAASRLIFTPYAMGWYIQAPGKERELVAAINYGGSRTYYADSVKGRFTISRDNAKNTVYLQMNSLKPEDTAVYYCAARGYTLSYVDMYYWGQGTQVTVSS	high polyreactivity
QVQLVESGGGLVQAGGSLSLSFAASGSTFERYAMGWSRQAPGKERELVAAIRASGVRTYYADSVKGRFTISRDNAKNTVNLQMNSLKPEDTAVYYCAAELQRYWGRLYYYWGQGTQVSVSS	high polyreactivity
QVQLVESGGGLVQAGGSLRLSCAASGSTFSPYAMGWYRQAPGKERELVANITISGGSTYYADSVKGRFTISRDNAKNTVYLQMNSLKPEDTAVYYCNADSLIRWLFTVVIFDYWGQGTQVTVSS	low polyreactivity
QVQLVESGGGLVQAGGSLRLSCAASGRTFKFYAMGWYRQAPGKERELVARITSNSGSTYYADSVKGRFTISRDTAKNTVYLQMTSLKPEDTAVYYCAVRGTLGSYWYTYYYWGQGTQVTVSS	high polyreactivity
QVQLVESGGGLVQAGGSLSLSCAASGSIFPHYAMGWYRQAPGKERELVAAISRSGTSTYYADSVKGRFTISRDNAKNTVYLQMNSLNPEDTAVYYCATGYRRDHDDYWGQGTQVTVSS	high polyreactivity
QVQLVESGGGLVQAGGSLRLSCAASGSIFAVNAMGWYRPAPGKERELVAAITSGGITYYADSVKGRFTISRDNAKNTVYLQMNSLKPEDTAVYYCATVFSVQGWYFGMNYWGQGTQVTVSS	low polyreactivity
QVQLVESGGGLVQAGGSLRLSCAASGSTFRWYAMGWYRQAPGKERDLVAAISARGTSTYYADSVKGRFTISRDNAKNTVYLQMNSLKPEDTAVSYCAAPQQQSWTYDGRYGYWGQGTQVTVSS	high polyreactivity
QVQLVQSGGGLVQAGGRLSLSCAASGYIFFTNAMGWYRQAPGKERELVAAISSAGRTKYADSVKGRFTISRDNAKNTVYIQMNSLIPEDTAVYYCNKSFYYRWGTGYDYWGQGTQVTVSS	low polyreactivity
QVQLVESGGGLVQAGGSLRLSCAASGSIFTLYAMGWYRQAPGKERELVATINWSGGSTSYADSVKGRFTISRDNAKNTVYLQMNSLKPEDTAVYYCAADYYFWHGTGYDYWGQGTQVTVSS	low polyreactivity

Sequence	polyreactivity (PSR sort gate)
QVQHVDSGGGLVQAGGSLRLSCAASGFIFAYNIMGWYRQAPGKERELVADISGTGSTNYADSVKGRFTISRDNAKNTVYLQMNSLKPEDTAVYYCATSGDRLVWGQGTLVTVSS	low polyreactivity
QVQLVESGGGLVQAGGSLRLSCAASGSIFTINAMGWYRQAPGKERELVAAISFSGGRTYYADSVKGRFTISRDNAKITVYLQMNSLKPEDTAVYYCAAPFYYYGVRFDYWGQGTQVTVSS	high polyreactivity
QLQHVESGGGLVQAGGSLRLSCAASGRTFWYYAMGWYRQAPGTESELVAAISRGGGSTYYADSVKGSFTISRDTAKNTVYLQMNILKPEDTAVYYCAVASDYRGYYYWGQGTQVTVSS	high polyreactivity
QVQLVESGGGLVQAGGSLRLSCAASGRTSVIYAMGWYRPAPGKERELVAGISYRGTSTYYADSVKGRFTISRDNAKNTVYLLMNSLKPEDTAVYYCAAESYYKYFNNYDYWGQGTQVTVAS	high polyreactivity
QVQLVESGGRLVQAGGSLRLSCAASGRTIRYNAMGWYRQAPGKERELVASISDGGSTNYADSVKGRFTISRDNAKNTVYLQMNSLKPEDTAVYYCALAGYRRYGYVYWGQGTQVTVSS	low polyreactivity
QVQLVESGGGLVQAGGSLRLSCAASGFTFQENAMGWYRQATGKERELVAAISKSGGITYYADSVKGRFTISRENAKNNVYLQMNSLKPEDTAVYYCNIGNAYVVYTSGYDYWGQGTQVTVSS	low polyreactivity
QVQLVESGGGLVQAGGSLRLSCAASGYTFQYNDMGWYRQAPGKERELVAGISIGGSTNYADSVKGRFTISRDNAKNTVYLQMNSLKPEDTAVYYCAARTLWFPGTTSTSVGSKYGYWGQGTQVSVSS	low polyreactivity
QVQLVESGGGLVQEGGSLRLSCAASGFILVNYAMGWYRQAPGKEREFVAAISGSGTRTYYADSVKGRFTISRDNAKNTVYLQMNSLKPEDTAVYYCAARVGYRKLYYYWGQGTQVTVSS	high polyreactivity
QVQLVESGGGLVHAGGSLRLSCASSGFTYSQYVMGWYRQAPGKERELVASITGNGGSTRYADSVKGRFTISRDNANKTVYLQMNCLKPEDTAVYYCDTRVKFSTSYWLYYWGQGTQVTVSS	high polyreactivity
QVQLVESGGGLVQAGGSLRLSCAASGSIFWGNDMGWYRQAPGKERELVAGIRNSGTSTYYADSVKGRFTISRDNAKNTVYVQMNSLKPEDTAVYDCAAADGRQYSRYYWRGHDYWGQGTQVTVSS	low polyreactivity
QVQLVESGGGLVQAGGSLRLSCAASGFIFTLYTMGWYRQAPGKERELVAAIDKNGSTYYADSVKGRFTISRDNAKNTVYLQMNSLKPEDTAVYYCAADDRYRGNREDYWGQGTQVNVSS	low polyreactivity
QVQLVESGGGLVEAGGSLRLSCAASGSTFGYNAMGWYRQAPGKERELVAAISWSGGSTYYADSVKGRFTISRDNAKNTVYLQMNSLKPEDTAVYYCATPYVKWNDYWGQGTQVTVST	low polyreactivity
QVQLVESGGGLVQAGGSLRLSCAASGIIFQNYAMGWYRPAPGKERELVAVISNTGSTNYADSVKGRFTISRDNAKNTVYLQMNSLKPEDTAVYYCAAEFRVVDWLWFDYWGQGTQVTVSS	high polyreactivity
QVQLVESGAGLVQAGGSLRLSCAASGGTFWKYAMGWYRQAPGKESELVAAITWSGSSTYYADSVKGRFTISRDNAKNTVFLLMKSLKPEDTAVYYCARYHVGPSYRYGYWGQGTQVTVSS	high polyreactivity
QVQVVESGGGLVKAGGSLRISCAASGRSFGANVMGWYRQAPGKEREFVAAISSSGGSTYYADSVKGRFTISRDNAKNTVYLQMNSVKPEDTAVYYCAAGGWPYSGGWFFQPNYDYWGQGTQVTVSS	low polyreactivity
QVQLVESGGRLVQAGGSLRISRAASGFTFPSYTMGWYRQAPGKERELVAAITSSGGNTYYADSVKGRFTISRDNAKNTVYLQMNSLKPEVTAVYYCATVSVRWPSNDHVRYDYWGQGTQVTVSS	low polyreactivity
QVQLVESGGGLVQAGGSLRLSCAASGRTFWIYAMGWYRQAPGKERELVAAISRGGSTYADSVKGRFTISRDNAKNTVYLQMNSLKPEDTAVYYCAASTPQYQYYYWGQGTQVTVSS	high polyreactivity
QVQLVESGGGLVQAGGSLRLSCAASGSTFFRYAMGWYRQAPGKERELVAAISKSGGTTSYADSVKGRITISRDNAKNTVYLQMNSLKQEDTAVYYCAARVQHIYDWGQGTQVTVSS	high polyreactivity
QVQLVESGGGLVQAGGSLRLSCAASGSIFRWNAMGWSRQATGKERELVAVINSSGGSTYYADSVKGRFTISRDNAKNTVYLQMNSLKPEDTAVYYCAADVFFYVYEAYLLYYWGQGTQVTVSS	low polyreactivity
QVQLVESGGGLVQAGGSLRLSCAASGSIFGTNAMGWYRQAPGKERELVAAISLSTGSTYYADSVKGRFTISRDNAKNNVYLQMNSLKPEYTAVYYCAAYYVTPIYYYWGQGSQVTVSS	low polyreactivity

Reference: the nanobody polyreactivity screen of Harvey et al. (2022)
